The target of test [1] is T1, human FcγRIIIA (F158) (human, UniProt P08637 17-208).
T1 construct: bought; F158 allele
In words: SPR, FcγRIIIA captured. Further: test concentration or dose not given here. In general terms: SPR reads the build-up and loss of mass on a sensor chip optically.

In test [2] the target is T2, human FcγRIIIB (NA2 allotype) (human, UniProt O75015 17-200, limits assumed).
T2 construct: bought; NA2 allotype
In words: SPR, receptor captured on anti-His chip.

Test [3] concerns the target T3, human FcγRIIB (human, UniProt P31994 43-217).
T3 construct: bought
T3 sequence (looked up): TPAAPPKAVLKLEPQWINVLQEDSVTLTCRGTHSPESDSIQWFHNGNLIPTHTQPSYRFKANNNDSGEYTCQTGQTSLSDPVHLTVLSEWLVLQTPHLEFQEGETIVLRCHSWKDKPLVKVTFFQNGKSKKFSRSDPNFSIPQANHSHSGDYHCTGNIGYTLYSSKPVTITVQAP
Nature of the test: SPR, receptor captured on anti-His chip.

Test [4] has as its target T1, human FcγRIIIA (F158). Nature of the test: SPR, receptor captured on anti-His chip.
Test [5] has as its target T4, human FcγRIIA (R131) (human, UniProt P12318 34-218, limits assumed).
T4 construct: bought; R131 allele
T4 sequence (looked up): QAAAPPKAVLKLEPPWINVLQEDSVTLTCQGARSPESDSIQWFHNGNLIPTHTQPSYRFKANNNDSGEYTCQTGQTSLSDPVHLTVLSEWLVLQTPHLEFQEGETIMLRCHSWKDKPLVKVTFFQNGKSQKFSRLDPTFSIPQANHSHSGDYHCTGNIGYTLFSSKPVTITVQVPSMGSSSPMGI
Nature of the test: SPR, receptor captured on anti-His chip.

Test [6] addresses T5, human FcRn (human, UniProt P55899 24-297; P61769 21-119).
T5 construct: bought
In words: SPR pH 6.0, FcRn captured; Expt 2.

The target in test [7] is T6, Histidine-tagged recombinant human FcγRI (CD64) (human, UniProt P12314 16-288, limits assumed).
T6 construct: bought
Nature of the test: SPR, His-FcγRI captured; Expt 1 Rep 1.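 Further: antibody analyte injected at 100 µg/mL for 1 min.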
Procedure: (§1) Methods were run using the manufacturer's standard method wizards as described in the Biacore® T200 Instrument Handbook.
(§2) The cell was activated by treatment with EDC/NHS for 7 min. The antibody was diluted to 10 μg/mL in 10 mM sodium acetate pH 5.0 and injected for 7 min at 5 μL/min. The flow cell was deactivated by injection of 1M ethanolamine for 7 min. This process was repeated in the absence of anti-his antibody on a separate flow cell to generate a reference surface. […] Samples of purified antibodies comprising variant Fc regions (1 mg/mL in PBS) were diluted with running buffer to 100 μg/mL and were injected for 1 min at 30 μL/min and allowed to disassociate for 2 min. Between each cycle, the chip was regenerated by injection of 10 mM glycine pH 3.0 for 0.5 min at a flow rate of 30 μL/min and recharged with a fresh injection of FcγRI. At the beginning of each experiment, three blank cycles were run, with buffer alone being injected instead of test sample. The average SPR signal (relative to the reference cell) was measured in a window approximately 8 to 13 seconds before the injection of test sample (baseline) and approximately 3 to 8 seconds before the end of injection (response). The response of the third of the blank (buffer) samples was subtracted from the response of each test sample in order to allow for any dissociation of the bound FcγRI giving a corrected response for each test sample. The whole experiment was repeated three times with the test samples being analysed in different orders each time. […] This lot was run at the beginning and end of each experiment as a consistency check.

Test [8] concerns the target T6, Histidine-tagged recombinant human …. In words: SPR, His-FcγRI captured; Expt 1 Rep 2.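 Further: antibody analyte injected at 100 µg/mL for 1 min.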
Procedure: as §1, §2
Test [9] shares this target. Nature of the test: SPR, His-FcγRI captured; CHO-produced; Expt 1 Rep 2.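 Further: antibody analyte injected at 100 µg/mL for 1 min.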
Procedure: as §1, §2
Test [10] shares this target. In words: SPR, His-FcγRI captured; Expt 2 Rep 1.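 Further: antibody analyte injected at 100 µg/mL for 1 min.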
Procedure: as §1, §2
Test [11] has the same target. In words: SPR, His-FcγRI captured; Expt 3.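 Further: biacore T200 SPR at 25 °C, Fc-variant antibodies at 100 µg/mL flowed 1 min over anti-His-captured FcγRI, signal taken just before injection end minus a buffer blank cycle; antibody analyte injected at 100 µg/mL for 1 min.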
Procedure: (§3) Binding analysis was carried out by surface plasmon resonance at 25° C. using a Biacore® T200 instrument with Biacore® T200 control software. The sample compartment was held at 5° C. The running buffer (HBS-EP+) consisted of 0.01 M HEPES pH 7.4, containing 0.15 M NaCl, 3 mM EDTA, and 0.05% v/v Surfactant P20. Methods were run using the manufacturer's standard method wizards as described in the Biacore® T200 Instrument Handbook.
(§4) The cell was activated by treatment with EDC/NHS for 7 min. The antibody was diluted to 10 μg/mL in 10 mM sodium acetate pH 5.0 and injected for 7 min at 5 μL/min. The flow cell was deactivated by injection of 1M ethanolamine for 7 min. This process was repeated in the absence of anti-his antibody on a separate flow cell to generate a reference surface. […] Samples of purified antibodies comprising variant Fc regions (1 mg/mL in PBS) were diluted with running buffer to 100 μg/mL and were injected for 1 min at 30 μL/min and allowed to disassociate for 2 min. Between each cycle, the chip was regenerated by injection of 10 mM glycine pH 3.0 for 0.5 min at a flow rate of 30 μL/min and recharged with a fresh injection of FcγRI. At the beginning of each experiment, three blank cycles were run, with buffer alone being injected instead of test sample. The average SPR signal (relative to the reference cell) was measured in a window approximately 8 to 13 seconds before the injection of test sample (baseline) and approximately 3 to 8 seconds before the end of injection (response). The response of the third of the blank (buffer) samples was subtracted from the response of each test sample in order to allow for any dissociation of the bound FcγRI giving a corrected response for each test sample. The whole experiment was repeated three times with the test samples being analysed in different orders each time.
For test [12] the target is unchanged. In words: SPR, His-FcγRI captured; mean.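 Further: biacore T200 SPR at 25 °C, anti-His surface capturing FcγRI, Fc-variant antibodies injected at 100 µg/mL for 1 min, signal near injection end minus third buffer blank, three repeats.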
Procedure: as §3, §4
For test [13], the target named is T7, cynomolgus monkey FcRn (cynomolgus monkey, UniProt Q8SPV9 24-297; Q8SPW0 21-119).
T7 construct: bought; also called cynomolgus FcRn
Nature of the test: SPR pH 6.0, FcRn captured.
Procedure: Samples of purified antibodies comprising variant Fc regions (1 mg/mL in PBS) were diluted with running buffer to 100 μg/mL and were injected for 1 min at 30 μL/min and allowed to disassociate for 2 min. Between each cycle, the chip was regenerated by injection of 10 mM glycine pH 3.0 for 0.5 min at a flow rate of 30 μL/min and recharged with a fresh injection of FcγRI. At the beginning of each experiment, three blank cycles were run, with buffer alone being injected instead of test sample. The average SPR signal (relative to the reference cell) was measured in a window approximately 8 to 13 seconds before the injection of test sample (baseline) and approximately 3 to 8 seconds before the end of injection (response). The response of the third of the blank (buffer) samples was subtracted from the response of each test sample in order to allow for any dissociation of the bound FcγRI giving a corrected response for each test sample. The whole experiment was repeated three times with the test samples being analysed in different orders each time. […] This lot was run at the beginning and end of each experiment as a consistency check.
As before the binding responses were corrected by subtraction of the response given by a blank sample consisting of running buffer alone.

Test [14] has as its target T5, human FcRn. In words: SPR pH 6.0, FcRn captured; Expt 1.
Test [15] deals with T8, rat FcγRI (rat, UniProt A0A0B4J2J0 16-285).
T8 construct: bought; captured on anti-histidine chip
T8 sequence: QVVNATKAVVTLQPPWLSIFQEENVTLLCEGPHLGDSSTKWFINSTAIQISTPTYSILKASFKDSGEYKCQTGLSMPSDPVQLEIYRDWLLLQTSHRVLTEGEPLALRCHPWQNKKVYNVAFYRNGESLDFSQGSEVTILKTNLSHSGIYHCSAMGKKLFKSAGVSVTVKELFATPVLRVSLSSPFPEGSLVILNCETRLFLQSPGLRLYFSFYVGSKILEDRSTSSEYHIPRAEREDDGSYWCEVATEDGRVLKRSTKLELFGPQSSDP
In words: SPR, receptor captured on anti-His chip.

Test [16] concerns the target T9, rabbit FcγRI (rabbit).
T9 construct: bought; captured on anti-histidine chip
Nature of the test: SPR, receptor captured on anti-His chip.

Test [17] addresses T10, mouse FcγRI (mouse, UniProt P26151 25-297).
T10 construct: bought; captured on anti-histidine chip
T10 sequence (looked up): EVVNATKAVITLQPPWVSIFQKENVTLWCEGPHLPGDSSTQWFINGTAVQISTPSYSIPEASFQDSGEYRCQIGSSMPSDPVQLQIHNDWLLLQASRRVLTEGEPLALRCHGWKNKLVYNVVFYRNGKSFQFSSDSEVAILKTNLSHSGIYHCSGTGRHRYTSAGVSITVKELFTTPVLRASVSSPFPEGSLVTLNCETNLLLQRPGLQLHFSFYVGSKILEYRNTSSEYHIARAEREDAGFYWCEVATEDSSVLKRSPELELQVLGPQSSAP
Nature of the test: SPR, receptor captured on anti-His chip.

Test [18] deals with T6, Histidine-tagged recombinant human …. In words: SPR, receptor captured on anti-His chip.
For test [19] the target is unchanged. Nature of the test: SPR, His-FcγRI captured; Expt 2.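 Further: biacore T200 SPR at 25 °C, Fc-variant antibodies at 100 µg/mL flowed 1 min over anti-His-captured receptor, signal read near injection end minus third buffer blank; antibody analyte injected at 100 µg/mL for 1 min.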
The target is the same in test [20]. Nature of the test: SPR, His-FcγRI captured; CHO-produced; Expt 2 Rep 1.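 Further: antibody analyte injected at 100 µg/mL for 1 min.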
Procedure: as §1, §2
Test [21] has the same target. Nature of the test: SPR, His-FcγRI captured; CHO-produced; Expt 2 Rep 2.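 Further: antibody analyte injected at 100 µg/mL for 1 min.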
Procedure: as §1, §2
The target is the same in test [22]. In words: SPR, His-FcγRI captured; CHO-produced; Expt 1 Rep 1.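 Further: antibody analyte injected at 100 µg/mL for 1 min.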
Procedure: as §1, §2
Test [23] has the same target. Nature of the test: SPR, His-FcγRI captured; Expt 1.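 Further: SPR at 25 °C on anti-His antibody chip capturing FcγRI, Fc-variant antibodies injected at 100 µg/mL for 1 min, signal near end of injection minus buffer blank.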
The target is the same in test [24]. In words: SPR, His-FcγRI captured; Expt 2 Rep 2.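 Further: antibody analyte injected at 100 µg/mL for 1 min.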
Procedure: as §1, §2

Here are results for five molecules from US20230235013A1 (MABSOLVE, published 2023).

Numbering of substitutions follows the chain as printed. Numbers in names are those of the source.

T5 sequence (P55899 24-297 limits assumed, chain 1 of 2): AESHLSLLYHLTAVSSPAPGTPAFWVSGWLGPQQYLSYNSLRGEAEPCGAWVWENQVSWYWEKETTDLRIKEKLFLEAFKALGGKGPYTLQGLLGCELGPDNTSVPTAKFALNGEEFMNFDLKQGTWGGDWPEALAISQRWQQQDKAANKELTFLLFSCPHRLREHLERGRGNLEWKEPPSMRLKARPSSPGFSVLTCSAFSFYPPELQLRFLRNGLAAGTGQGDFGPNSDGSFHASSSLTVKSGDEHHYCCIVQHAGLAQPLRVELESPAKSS
T5 sequence (P61769 21-119 limits assumed, chain 2 of 2): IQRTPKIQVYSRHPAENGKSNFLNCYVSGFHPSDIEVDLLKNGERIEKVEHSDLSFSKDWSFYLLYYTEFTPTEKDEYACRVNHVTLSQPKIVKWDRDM
T1 sequence (P08637 17-208 limits assumed): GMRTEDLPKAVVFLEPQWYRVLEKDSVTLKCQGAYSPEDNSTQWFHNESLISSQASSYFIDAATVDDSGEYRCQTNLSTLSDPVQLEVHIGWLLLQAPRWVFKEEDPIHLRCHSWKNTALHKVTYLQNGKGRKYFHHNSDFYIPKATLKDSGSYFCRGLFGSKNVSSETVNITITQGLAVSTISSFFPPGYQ

B1: anti-CD20 (rituximab) human IgG1 wild-type reference (antibody)
heavy: not shown
light: QIVLSQSPAILSASPGEKVTMTCRASSSVSYIHWFQQKPGSSPKPWIYATSNLASGVPVRFSGSGSGTSYSLTISRVEAEDAATYYCQQWTSNPPTFGGGTKLEIKRTVAAPSVFIFPPSDEQLKSGTASVVCLLNNFYPREAKVQWKVDNALQSGNSQESVTEQDSKDSTYSLSSTLTLSKADYEKHKVYACEVTHQGLSSPVTKSFNRGEC
notes: 2-1 and 10.0 are separate lots from HEK293; also called 2-1; 10.0
For the molecule B1, the “Corrected response (RU)” value in test [1] was 588 RU; in test [2] it was 501 RU; in test [3] it was 175 RU; in [4] it was 889 RU; in test [5], 345 RU; in test [6] it was 650 RU. Besides, the “Corrected response (RU)” value in test [7] amounted to 2370 RU; in test [8], 2380 RU; in test [9], 2180 RU; in [10] it was 1460 RU; in [11] it was 2600 RU; in test [13] it was 1440 RU. Moreover, the “Corrected response (RU)” value in test [14] amounted to 647 RU; in test [15], 2220 RU; in test [16], 2770 RU; in [17], 1790 RU; in [18] it was 3020 RU; in [19], 2570 RU. Also, the “Corrected response (RU)” value was found to be 1350 RU in test [20], 1390 RU in [21] and 2120 RU in test [22]. Also, the “Corrected response (RU), Mean” value in test [12] stood at 2590 RU.

B2: anti-CD20 human IgG1 L234Q/L235S/G236R (antibody)
heavy: QVQLQQPGAELVKPGASVKMSCKASGYTFTSYNMHWVKQTPGRGLEWIGAIYPGNGDTSYNQKFKGKATLTADKSSSTAYMQLSSLTSEDSAVYYCARSTYYGGDWYFNVWGAGTTVTVSSASTKGPSVFPLAPSSKSTSGGTAALGCLVKDYFPEPVTVSWNSGALTSGVHTFPAVLQSSGLYSLSSVVTVPSSSLGTQTYICNVNHKPSNTKVDKKVEPKSCDKTHTCPPCPAPEQSRGPSVFLFPPKPKDTLMISRTPEVTCVVVDVSHEDPEVKFNWYVDGVEVHNAKTKPREEQYNSTYRVVSVLTVLHQDWLNGKEYKCKVSNKALPAPIEKTISKAKGQPREPQVYTLPPSRDELTKNQVSLTCLVKGFYPSDIAVEWESNGQPENNYKTTPPVLDSDGSFFLYSKLTVDKSRWQQGNVFSCSVMHEALHNHYTQKSLSLSPGK
light: B1 light
notes: also called 2-33; 10.77
As to B2, the “Corrected response (RU)” value in test [1] is 2.7 RU; in [2], 2.3 RU; in [5], 1.8 RU; in [6], 496 RU; in test [11] it was 3.8 RU; in test [23], -1.8 RU. Besides, the “Corrected response (RU)” value worked out at 1170 RU in test [13]; 488 RU in [14]; 0.6 RU in test [15]; 0.9 RU in [16]; 0.5 RU in [17]; 1.6 RU in test [19].

B3: anti-CD20 human IgG1 L234S/L235T/G236R (antibody)
heavy: B2 heavy with Q238S, S239T
light: B1 light
notes: also called 2-52; 1-150
Consider B3, for which the “Corrected response (RU)” value in test [7] was -23.8 RU; in test [8], -12.1 RU; in [9] it was -20.7 RU; in test [10], -1 RU; in test [23], -0.5 RU; in [19], 0.3 RU. Further, the entries for the “Corrected response (RU)” value in test [20], in test [21] and in test [22] were -9.2 RU, -8.9 RU and -23.4 RU, respectively. Also, the “Corrected response (RU), Mean” value in [12] was found to be 0.6 RU.

B4: anti-CD20 human IgG1 L234A/L235A (LALA) (antibody)
heavy: not shown
light: B1 light
notes: 2-65 and 10.16 are separate lots; also called 2-65; 10.16
In the case of B4, the “Corrected response (RU)” value was 16 RU in test [2]; 13.2 RU in test [3]; 57.4 RU in [4]; 21.8 RU in [5]; 614 RU in test [6]; 752 RU in test [7]. Further, the “Corrected response (RU)” value was determined as 654 RU in test [8]; 577 RU in [9]; 524 RU in [10]; 478 RU in [24]; 1390 RU in test [13]; 612 RU in [14]. Moreover, the “Corrected response (RU)” value came to 2.3 RU in [15]; 141 RU in test [16]; 6.3 RU in test [17]; 832 RU in [18]; 452 RU in test [20]; 440 RU in [21]. Besides, the “Corrected response (RU)” value in test [22] was found to be 597 RU.

B5: anti-CD20 human IgG1 L234A/L235A/P329G (LALAPG reference) (antibody)
heavy: not shown
light: B1 light
notes: also called 2-66
B5: the “Corrected response (RU)” value in [2] was -1.6 RU; in test [3], -0.6 RU; in test [4] it was -0.4 RU; in test [5] it was 0.9 RU; in test [6], 557 RU; in test [7], 53.4 RU. Besides, the “Corrected response (RU)” value in test [8] came to 40.7 RU; in [10], 62.4 RU; in [24], 49.5 RU; in test [13] it was 1270 RU; in [14], 543 RU; in test [15] it was 0.5 RU. The “Corrected response (RU)” value in test [16] is 5.6 RU; in [17] it was -0.2 RU; in test [18] it was 72.9 RU.
